B1: H2-Kb / H5 (parent)
chain 1: GEQVEQRPPHLSVREGDSAVIICTYTDPNSYYFFWYKQEPGAGLQLLMKVFSSTEINEGQGFTVLLNKKDKQLSLNLTAAHPGDSAVYFCAVSNYGSSGNKLIFGIGTLLSVKP
chain 2: EAAVTQSPRNKVAVTGGKVTLSCNQTNNHNNMYWYRQDTGHGLRLIHYSYGAGSTEKGDIPDGYKASRPSQENFSLILELATPSQTSVYFCASGDRERDTQYFGPGTRLLVL
chain 3: not shown
chain 4: IQKTPQIQVYSRHPPENGKPNILNCYVTQFHPPHIEIQMLKNGKKIPKVEMSDMSFSKDWSFYILAHTEFTPTETDTYACRVKHDSMAEPKTVYWDRDM
chain 5: SIINFEKL

Variants of: B1
Assay: % of reporter cells activated (NFAT-GFP), raw; also: test concentration or dose not given here
Conditions: with H5; scale: % of reporter cells activated

Ratio to parent of substitutions, site by site:
chain 5 E6: C 0.342, K 0.332, V 0.342, T 0.459, M 0.311, P 0.301, W 0.25, I 0.408
chain 5 N4: M 0.352, H 8.69, S 0.332, C 0.49, E 0.367, T 0.352, D 0.316, R 0.454, I 0.347, L 0.469, G 0.362, K 0.592, P 0.255, F 1.27, Y 1.1, W 0.5, Q 0.245, V 0.332, A 0.301
chain 5 I3: C 0.5, E 0.357, W 0.286, L 0.74, P 0.49, N 0.367, Y 0.321, M 0.327, G 0.347, R 0.403, V 0.985, D 0.265, T 0.352, A 0.306, S 0.276, Q 0.337, K 0.423, H 0.372, F 0.276
chain 5 L8: P 0.332, Y 0.755, I 0.786, R 0.485, G 0.515, A 0.709, W 0.255, C 0.781, E 0.49, V 0.531, D 0.352, N 0.281, S 0.464, F 0.423, H 0.985, K 0.837, Q 0.842, M 0.689, T 0.719
chain 5 K7: Q 0.592, H 0.806, V 0.75, I 1.12, L 0.638, D 0.597, G 0.811, S 0.76, W 0.352, C 0.77, F 0.306, P 0.551, Y 0.383, A 0.648, M 0.362, R 1.01, E 4.34, N 0.893, T 1.8
